The values below come from patent publication US20260103529A1, “Amino Acid Sequences Directed Against the Melanocortin 4 Receptor and Polypeptides Comprising the Same for the Treatment of MC4R-Related Diseases and Disorders” (Confo Therapeutics N.V., priority 2022, published 2026).

The target in one data set is T1, human wild type MC1R (Homo sapiens, UniProt Q01726).
T1 construct: expressed in transfected cells; host or cells: HEK293 / HEK 293T, pcDNA3.1(+)
The data set can be described thus: cAMP GloSensor assay, MC1R. The format is cell-based.

The target of another data set is T2, human wild type MC3R (Homo sapiens, UniProt P41968).
T2 construct: expressed in transfected cells; host or cells: HEK293 / HEK 293T, pcDNA3.1(+)
Briefly: cAMP GloSensor assay, MC3R. The format is cell-based.

The target of a further data set is T3, human MC4R (Homo sapiens, UniProt P32245).
T3 construct: Flag; expressed in transfected cells; host or cells: HEK293T
Briefly: Flow cytometry binding to Flag-tagged receptor in HEK293T cells, MC4R. Particulars: 1 μM. The method, then: (§1) To confirm MC4R activation, dose-dependent nanobody-induced cAMP signaling was assessed (Lance Ultra HTRF). […] Binding of pN162 to the human melanocortin receptor subtypes MC1R, MC2R, MC3R, MC4R or MC5R transiently expressed as Flag-tagged receptors in HEK293T cells was assessed by flow cytometry.

Another data set concerns the target T4, human MC2R (Homo sapiens, UniProt Q01718).
T4 construct: Flag; expressed in transfected cells; host or cells: HEK293T
The data set can be described thus: Flow cytometry binding to Flag-tagged receptor in HEK293T cells, MC2R. Particulars: 1 μM. The method, then: as §1
(Flow cytometry measures light scatter and fluorescence of single cells or particles in a stream.)

The subject of data set [1] is moderately pigmented normal human epidermal melanocytes (NHEM-MP). Briefly: In vitro pigmentation assay, melanin synthesis, 2D NHEM moderately pigmented. The format is cell-based. Particulars: 10 days. The method, then: Highly and moderately pigmented melanocytes were seeded in 24-well plates and cultured in culture medium for 24 hours. The medium was then replaced by culture medium containing or not (control) the test compounds or the reference compounds (L-tyrosine at 1 mM, IBMX at 100 and 200 μM and NDP-MSH at 10 μM). The cells were then incubated for 10 days with treatment renewal at day 3 and day 7. All experimental conditions were performed in n=3. At the end of the incubation time, the culture supernatants were removed, and melanin was extracted by cell lysis using a 0.5 N NaOH solution. The optical density (OD) of each experimental point was measured at 405 nm and melanin quantity was determined according to melanin standard curve (standard curve ranging from 0.39 to 100 μg/ml). The results were expressed in μg/ml of melanin. […] NHEM-HP response to L-tyrosine and NDP-MSH was stronger than in NHEM-MP while IBMX induced a stronger response in the NHEM-MP.

In data set [2] the test system is melanized reconstituted human epidermis (RHE/MEL/001). Briefly: In vitro pigmentation assay, 3D reconstituted human epidermis, dermoscopy. It is filed as cell-based. The protocol: The study was carried out on melanized human epidermis (RHE/MEL/001; batch CB0521-3) in vitro reconstituted with NHEKs (Normal human epidermal keratinocytes, Lonza 00192906) isolated from foreskin of 3 neonatal Caucasian donors and NHEM-DP (Normal Human Epidermal Melanocytes-Darkly pigmented) isolated form one donor (phototype IV-V). The tissues were cultured at the air-liquid interface in Epilife medium (Fisher Scientific, MEP1500CA) containing specific supplements (with among others Human Keratinocytes Growth Factors, Fisher Scientific S0015 or SO01K) and antibiotics (Gentamycin, Fisher Scientific, 15710049). They were maintained in a humid atmosphere at 37° C. with 5% CO2.
RHE/MEL/001 were reconstituted and cultivated at the air-liquid interface during 14 days in Epilife medium supplemented with specific growth supplements (as described in paragraph 1) in a humid atmosphere at 37° C. with CO2 5%.
IBMX (Sigma; 15879) at 100 µM was used as tanning reference compound to validate the experiment. A DMSO control (corresponding to the solvent used to solubilize IBMX) at 0.02% (corresponding to the final concentration in DMSO found in the culture medium for the condition treated with IBMX) was planned as well. Four replicates were planned per condition (n=4).
At the end of the 10 days treatments (at day 14), macroscopic high-resolution pictures of tissues (n=4) were taken. This was performed using the C-Cube device (Dermoscope type tool; Pixience, France) coupled to C-Cube clinical 3 software, which uses a proprietary method of colour calibration, and provides razor-sharp images of high quality and precision. The following endpoints were calculated, each one taking into account 3 values from the mode “L* a* b*” with L* reflecting the luminance/brightness (value from 0 to 100 with high values for clear skins), a* to gives an idea about the redness of the skin (value from −60 to 60 on the red/green axis) and b* to gives an idea about the yellowness of the skin (value from −60 to 60 on the blue/yellow axis): • ITA (Individual Typology Angle) characterizing the phototype, compared to a standard scale, with ITA>55° for very clear skins and ITA<−30° for black skins. • PI (Pigmentation Index) whose value is directly proportional to the skin pigmentation, with PI from 140 for clear skins to 200 for dark skins. • Colorimetric difference (score or ΔE) allows to quantify colour variation between a test condition and a reference. […]
The two test items, hydro-soluble, were evaluated in parallel of one reference compound known to be a pigmentation inducer, namely IBMX. Their capacity to stimulate the production of melanin was evaluated by visual quantification of melanin on macroscopic high resolution pictures obtained by dermoscopy. […]

For a further data set, the system named is MC4R. The data set can be described thus: Radioligand displacement, CHO stable cell line. It is filed as binding. Particulars: mean ± spread, n = 2. (In general: Loss of bound radioactivity is the signal in a displacement assay; it reports binding, not function.)
[3] abbreviates: GloSensor head-to-head receptor subtype comparison.
[4] abbreviates: 10 μM in culture medium, 10 days, dermoscopy.

T2 sequence (P41968 whole entry): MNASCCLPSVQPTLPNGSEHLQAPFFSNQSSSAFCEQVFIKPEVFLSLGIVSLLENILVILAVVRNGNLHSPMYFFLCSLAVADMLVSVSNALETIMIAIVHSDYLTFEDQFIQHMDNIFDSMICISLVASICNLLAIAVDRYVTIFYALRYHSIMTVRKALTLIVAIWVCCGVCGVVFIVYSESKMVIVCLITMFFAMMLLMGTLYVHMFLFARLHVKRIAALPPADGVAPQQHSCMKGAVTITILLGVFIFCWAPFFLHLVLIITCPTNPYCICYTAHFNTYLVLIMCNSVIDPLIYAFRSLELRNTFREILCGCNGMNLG
T1 sequence (Q01726 whole entry): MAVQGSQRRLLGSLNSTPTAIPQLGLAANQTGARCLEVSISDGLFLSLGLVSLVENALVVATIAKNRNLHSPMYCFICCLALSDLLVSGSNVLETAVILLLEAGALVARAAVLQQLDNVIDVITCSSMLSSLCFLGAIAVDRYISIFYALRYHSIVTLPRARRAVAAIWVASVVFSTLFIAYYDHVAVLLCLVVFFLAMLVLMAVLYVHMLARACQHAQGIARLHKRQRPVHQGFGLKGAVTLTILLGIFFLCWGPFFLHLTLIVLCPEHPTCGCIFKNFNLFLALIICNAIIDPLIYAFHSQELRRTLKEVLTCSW
T4 sequence (Q01718 whole entry): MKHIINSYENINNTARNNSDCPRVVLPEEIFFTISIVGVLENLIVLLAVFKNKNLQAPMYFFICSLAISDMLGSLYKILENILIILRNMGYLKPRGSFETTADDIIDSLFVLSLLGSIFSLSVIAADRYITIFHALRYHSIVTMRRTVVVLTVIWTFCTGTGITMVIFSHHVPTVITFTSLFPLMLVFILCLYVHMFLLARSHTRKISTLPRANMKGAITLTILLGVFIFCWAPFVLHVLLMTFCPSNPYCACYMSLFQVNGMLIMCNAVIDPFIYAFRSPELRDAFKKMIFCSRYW
T3 sequence (P32245 whole entry): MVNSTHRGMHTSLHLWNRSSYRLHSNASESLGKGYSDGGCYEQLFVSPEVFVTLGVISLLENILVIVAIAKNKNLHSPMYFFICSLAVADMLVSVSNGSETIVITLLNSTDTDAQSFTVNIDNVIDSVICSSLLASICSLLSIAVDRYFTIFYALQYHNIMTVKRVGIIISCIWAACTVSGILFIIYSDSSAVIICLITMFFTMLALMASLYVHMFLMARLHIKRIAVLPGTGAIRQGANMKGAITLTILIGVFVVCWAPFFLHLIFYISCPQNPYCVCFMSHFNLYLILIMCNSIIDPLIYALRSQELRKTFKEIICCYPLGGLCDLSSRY

B1: pN162: agonistic anti-MC4R VHH, SEQ ID NO: 184; parental clone for potency maturation (protein)
VHH: QVQLVESGGGLVQPGGSLRLSCAASGSAFSLNVMGWYRQTPGNQRALVAEITKDGSTNYADSAKGRFTISRDNAKNTVHLQMDSLKPEDTAVYYCKARTGRIVRPLDYWGQGTQVTVSS
modifications: pN0162
For the molecule B1, the “detectable cAMP signaling, MC1R” value with human wild type MC1R (setting [3]) is recorded as “only induced detectable signaling on MC4R”. Further, the “cAMP potency (EC50) MC1R” value with human wild type MC1R (GloSensor, average EC50, human MC1R) was “No effect”. Also, the “detectable cAMP signaling, MC3R” value in the data set with human wild type MC3R (setting [3]) was “only induced detectable signaling on MC4R”. Besides, in the data set with human wild type MC3R (GloSensor, average EC50, human MC3R), the “cAMP potency (EC50) MC3R” value is given as “No effect”. Besides, the “binding to MC4R by flow cytometry” value with human MC4R is “only demonstrated for MC4R”. Moreover, the “binding to MC2R by flow cytometry” value in the data set with human MC2R was “No binding could be detected”. Also, the “modulation of melanin synthesis” value in data set [1] is on record as “did not modulate”. Also, in data set [2] (setting [4]), the “Individual typology angle (ITA)” value is on record as “No significant effects”; the “pigmentation index (PI)” value is given as “No significant effects”; the “visual colorimetric difference (score, ΔE)” value is on record as “No significant effects”. The “effect on epidermis pigmentation (conclusion of dermoscopy analysis)” value in data set [2] (10 μM, human epidermis in culture) was “no effect on epidermis pigmentation”. In the data set with MC4R, this molecule displayed a Radioligand displacement of 6.48 ± 1.96 nM.
